# Measurements as given in the supplement of paper PMC10567573.
# B1: ESRRA (parent)
# chain: SLPLQDELAFAEDLVLDEEGARAA
# Variants of: B1
# Test: protein stability index of a GFP-peptide fusion (GPS, HEK-293T) (PSI 1-6); higher = more stable
# Conditions: c terminus: a fixed tail appended
# 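Further: lentivirally expressed fusions sorted by FACS into six bins by GFP to DsRed ratio, PSI derived from sequencing read proportions per bin multiplied by bin number.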
row,Variant,protein stability index
1,SLPLQDELAFAQDLVLDEEGARAA,4.71
2,SLPLQDELAFAWDLVLDEEGARAA,5.05
3,SLPLQDELAFARDLVLDEEGARAA,4.36
4,SLPLQDELAFAPDLVLDEEGARAA,5.03
5,SLPLQDELAFADDLVLDEEGARAA,5.35
6,SLPLQDELAFAMDLVLDEEGARAA,4.88
7,SLPLQDELAFAEDLVLDEEGARIA,2.87
8,SLPLQDELAFAEDLVLDEEGARQA,3.19
9,SLPLQDELAFAEDLVLDEEGARGA,4.15
10,SLPLQDELAFAEDLVLDEEGARFA,2.89
11,SLPLQDELAFAEDLVLDEEGARSA,3.42
12,SLPLQDELAFAEDLHLDEEGARAA,5.45
13,SLPLQDELAFAEDLGLDEEGARAA,5.55
14,SLPLQDELAFAEDLPLDEEGARAA,5.37
15,SLPLQDELAFAEDLILDEEGARAA,3.18
16,SLPLQDELAFAEDLQLDEEGARAA,5.49
17,SLPLQDELAFAEDLMLDEEGARAA,4.79
18,SLPLQDELAFAEDLLLDEEGARAA,3.92
19,SLPLQDELAFAEDLKLDEEGARAA,5.57
20,SLPLQDELAFAEDLALDEEGARAA,4.6
21,SLPLQDELAFAEDLVLDDEGARAA,4.8
22,SLPLQDELAFAEDLVLDKEGARAA,4.48
23,SLPLQDELAFAEDLVLDFEGARAA,3.24
24,SLPLQDELAFAEDLVLDVEGARAA,3.6

row,Variant,protein stability index
1,SLPLQDELAFAEDLVLDMEGARAA,2.42
2,SLPLQDELAFAEDLVLDTEGARAA,2.79
3,SLPLQDELAFAEDLVLDLEGARAA,3.11
4,SLPLQDELAFAEDLVLDYEGARAA,2.99
5,SLPLQDELAFAEDLVLDGEGARAA,2.93
6,SLPLQDELAFAEDLVLDWEGARAA,2.49
7,SLPLQDELAFAEDLVGDEEGARAA,4.85
8,SLPLQDELAFAEDLVKDEEGARAA,3.24
9,SLPLQDELAFAEDLVIDEEGARAA,3.88
10,SLPLQDELAFAEDLVFDEEGARAA,3.7
11,SLPLQDELAFAEDLVHDEEGARAA,3.6
12,SLPLQDELAFAEDLVWDEEGARAA,3.23
13,SLPLQDELAFAEDLVRDEEGARAA,3.55
14,SLPLQDELAFAEDLVSDEEGARAA,4.91
15,SLPLQDELAFAEDLVQDEEGARAA,3.54
16,SLPLQDELAFAEDLVYDEEGARAA,2.44
17,SLPLQDELIFAEDLVLDEEGARAA,4.8
18,SLPLQDELNFAEDLVLDEEGARAA,3.88
19,SLPLQDELMFAEDLVLDEEGARAA,3.2
20,SLPLQDELRFAEDLVLDEEGARAA,3.38
21,SLPLQDELHFAEDLVLDEEGARAA,3.67
22,SLPLQDELSFAEDLVLDEEGARAA,3.42
23,SLPLQDELGFAEDLVLDEEGARAA,4.01
24,SLPLQDELAFAEDLVLDEEGARAT,3.94

row,Variant,protein stability index
1,SLPLQDELAFAEDLVLDEEGARAQ,3.05
2,SLPLQDELAFAEDLVLDEEGARAH,3.66
3,SLPLQDELAFAEDLVLDEEGARAY,3
4,SLPLQDELAFAEDLVLDEEGARAM,2.97
5,SLPLQDELAFAEDLVLDEEGARAR,2.8
6,SLPLQDELAFAEDLVLDEEGARAC,2.94
7,SLPLQDELAFAEDLVLDEEGARAV,3.06
8,SLPLQDELAFAEDLVLDEEGARAP,3.21
9,SLPLQDELAFAEDLVLDEEGWRAA,3.2
10,SLPLQDELAFAEDLVLDEEGHRAA,3.09
11,SLPLQDELAFAEDLVLDEEGMRAA,3.61
12,SLPLQDELAFAEDLVLDEEGYRAA,2.63
13,SLPLQDELAFAEDLVLDEEGKRAA,2.66
14,SLPLQDELAFAEDLVLDEEGPRAA,3.14
15,SLPLQDELAFAEDLVLDEEGRRAA,3.41
16,SLPLQDELAFAEDLVLDEEGNRAA,2.91
17,SLPLQDELAFAEDLVLDEEGVRAA,3.14
18,SLPLQDELAFAEDLVLDEGGARAA,1.75
19,SLPLQDELAFAEDLVLDEKGARAA,2.89
20,SLPLQDELAFAEDLVLDEHGARAA,2.33
21,SLPLQDELAFAEDLVLDEVGARAA,2.83
22,SLPLQDELAFAEDLVLDESGARAA,2.79
23,SLPLQDELAFAEDLVLDENGARAA,2.63
24,SLPLQDELAFAEDLVLDEPGARAA,4.02

row,Variant,protein stability index
1,SLPLQDELAFAEDLVLDELGARAA,2.15
2,SLPLQDELAFAEDLVLDEIGARAA,1.74
3,SLPLQDEFAFAEDLVLDEEGARAA,5.13
4,SLPLQDEKAFAEDLVLDEEGARAA,5.45
5,SLPLQDEGAFAEDLVLDEEGARAA,5.2
6,SLPLQDEDAFAEDLVLDEEGARAA,5.43
7,SLPLQDEPAFAEDLVLDEEGARAA,5.3
8,SLPLQDEMAFAEDLVLDEEGARAA,2.99
9,SLPLQGELAFAEDLVLDEEGARAA,3.37
10,SLPLQRELAFAEDLVLDEEGARAA,2.65
11,SLPLQYELAFAEDLVLDEEGARAA,2.02
12,SLPLQFELAFAEDLVLDEEGARAA,2.73
13,SLPLQEELAFAEDLVLDEEGARAA,2.67
14,SLPLQSELAFAEDLVLDEEGARAA,3.25
15,SLPLQTELAFAEDLVLDEEGARAA,2.89
16,SLPLQWELAFAEDLVLDEEGARAA,2.78
17,SLPLQKELAFAEDLVLDEEGARAA,2.81
18,SLPLQHELAFAEDLVLDEEGARAA,2.45
19,SLPLQDELAFTEDLVLDEEGARAA,4.23
20,SLPLQDELAFNEDLVLDEEGARAA,5.7
21,SLPLQDELAFGEDLVLDEEGARAA,5.17
22,SLPLQDELAFHEDLVLDEEGARAA,5.54
23,SLPLQDELAFVEDLVLDEEGARAA,5.07
24,SLPLQDELAFEEDLVLDEEGARAA,5.54

row,Variant,protein stability index
1,SLPLQDELAFREDLVLDEEGARAA,5.65
2,SLPLQDELAFLEDLVLDEEGARAA,4.97
3,SLPLQDELAFSEDLVLDEEGARAA,4.13
4,SLPLQDELAFYEDLVLDEEGARAA,4.66
5,SLPLQDELAFCEDLVLDEEGARAA,5.35
6,HLPLQDELAFAEDLVLDEEGARAA,2.89
7,KLPLQDELAFAEDLVLDEEGARAA,3.09
8,ILPLQDELAFAEDLVLDEEGARAA,3.03
9,TLPLQDELAFAEDLVLDEEGARAA,3.01
10,VLPLQDELAFAEDLVLDEEGARAA,2.89
11,CLPLQDELAFAEDLVLDEEGARAA,2.93
12,SLPLQDELAFAEDLVLDEEQARAA,3.93
13,SLPLQDELAFAEDLVLDEEAARAA,4.48
14,SLPLQDELAFAEDLVLDEEPARAA,3.7
15,SLPLQDELAFAEDLVLDEEFARAA,3.47
16,SLPLQDELAFAEDLVLDEEKARAA,3.4
17,SLPLQDELAFAEDLVLDEEHARAA,2.9
18,SLPLQDELAFAEDLVLDEEWARAA,2.67
19,SLPLQDELAFAEDLVLDEEVARAA,4
20,SLPLQDWLAFAEDLVLDEEGARAA,4.16
21,SLPLQDALAFAEDLVLDEEGARAA,2.41
22,SLPLQDYLAFAEDLVLDEEGARAA,3.88
23,SLPLQDDLAFAEDLVLDEEGARAA,3.63
24,SLPLQDQLAFAEDLVLDEEGARAA,3.56

row,Variant,protein stability index
1,SLPLQDRLAFAEDLVLDEEGARAA,4.96
2,SLPLQDKLAFAEDLVLDEEGARAA,4.84
3,SLPLQDMLAFAEDLVLDEEGARAA,3.26
4,SLPLQDSLAFAEDLVLDEEGARAA,3.29
5,SLPLQDVLAFAEDLVLDEEGARAA,2.03
6,SLPLQDELAFAEDLVLDEEGASAA,3.62
7,SLPLQDELAFAEDLVLDEEGAEAA,4.36
8,SLPLQDELAFAEDLVLDEEGANAA,3.36
9,SLPLQDELAFAEDLVLDEEGAAAA,3.35
10,SLPLQDELAFAEDLVLDEEGAYAA,3.01
11,SLPLQDELAFAEDLVLDEEGAQAA,3.45
12,SLPLQDELAFAEDLVLDEEGALAA,3.73
13,SLPLQDELAFAEDLVLDEEGAGAA,3.13
14,SLPLQDELAFAEDLVLDEEGAIAA,2.94
15,SLPLQDELAFAEDDVLDEEGARAA,5.5
16,SLPLQDELAFAEDSVLDEEGARAA,4.7
17,SLPLQDELAFAEDNVLDEEGARAA,5.38
18,SLPLQDELAFAEDPVLDEEGARAA,5.8
19,SLPLQDELAFAEDVVLDEEGARAA,4.41
20,SLPLQDELAFAEDFVLDEEGARAA,5.22
21,SLPLQDELAFAEDRVLDEEGARAA,4.2
22,SLPLQDELAFAEDLVLNEEGARAA,2.86
23,SLPLQDELAFAEDLVLKEEGARAA,2.46
24,SLPLQDELAFAEDLVLWEEGARAA,2.62

row,Variant,protein stability index
1,SLNLQDELAFAEDLVLDEEGARAA,4.08
2,SLALQDELAFAEDLVLDEEGARAA,4.97
3,SLYLQDELAFAEDLVLDEEGARAA,4.61
4,SLILQDELAFAEDLVLDEEGARAA,3.93
5,SLQLQDELAFAEDLVLDEEGARAA,4.21
6,SLELQDELAFAEDLVLDEEGARAA,4.97
7,SLKLQDELAFAEDLVLDEEGARAA,5.08
8,SLWLQDELAFAEDLVLDEEGARAA,4.32
9,SLVLQDELAFAEDLVLDEEGARAA,4.91
10,SLSLQDELAFAEDLVLDEEGARAA,5.28
11,SLRLQDELAFAEDLVLDEEGARAA,4.46
12,SLPLPDELAFAEDLVLDEEGARAA,4.94
13,SLPLTDELAFAEDLVLDEEGARAA,5.34
14,SLPLGDELAFAEDLVLDEEGARAA,4.43
15,SLPLMDELAFAEDLVLDEEGARAA,2.48
16,SLPLSDELAFAEDLVLDEEGARAA,4.79
17,SLPLIDELAFAEDLVLDEEGARAA,3.37
18,SLPLYDELAFAEDLVLDEEGARAA,2.96
19,SLPHQDELAFAEDLVLDEEGARAA,5.41
20,SLPVQDELAFAEDLVLDEEGARAA,5.02
21,SLPPQDELAFAEDLVLDEEGARAA,5.46
22,SLPWQDELAFAEDLVLDEEGARAA,5.32
23,SLPGQDELAFAEDLVLDEEGARAA,5.68
24,SLPKQDELAFAEDLVLDEEGARAA,5.08

row,Variant,protein stability index
1,SLPDQDELAFAEDLVLDEEGARAA,4.97
2,SLPLQDELAFAENLVLDEEGARAA,2.79
3,SLPLQDELAFAERLVLDEEGARAA,3.68
4,SLPLQDELAFAECLVLDEEGARAA,2.31
5,SLPLQDELAFAEPLVLDEEGARAA,5.46
6,SLPLQDELAFAEALVLDEEGARAA,3.48
7,SLPLQDELAFAETLVLDEEGARAA,3.71
8,SLPLQDELAFAEVLVLDEEGARAA,1.85
9,SLPLQDELAFAEILVLDEEGARAA,1.96
10,SLPLQDELAFAEQLVLDEEGARAA,3.68
11,SYPLQDELAFAEDLVLDEEGARAA,3.22
12,SGPLQDELAFAEDLVLDEEGARAA,4.81
13,SCPLQDELAFAEDLVLDEEGARAA,2.32
14,SPPLQDELAFAEDLVLDEEGARAA,4.27
15,SQPLQDELAFAEDLVLDEEGARAA,3.95
16,SWPLQDELAFAEDLVLDEEGARAA,2.69
17,SLPLQDELATAEDLVLDEEGARAA,3.77
18,SLPLQDELAEAEDLVLDEEGARAA,4.35
19,SLPLQDELACAEDLVLDEEGARAA,3.36
20,SLPLQDELADAEDLVLDEEGARAA,4.18
